# Columns and labels:
# 白介素-6 (IL-6) [1] = target: T1, 白介素-6 (IL-6) (UniProt P05231 30-212); experiment: SPR, IL-6 amine-coupled to CM5 chip, polypeptide injected
# T1 construct: also called Interleukin-6; 抗原IL-6
# 白介素-6 (IL-6) [2] = target: T1, 白介素-6 (IL-6); experiment: SPR, IL-6 amine-coupled to CM5 chip, nanobody injected
Kd (白介素-6 (IL-6) [1]),koff (白介素-6 (IL-6) [1]),Kd (白介素-6 (IL-6) [2]),Binder
0.0807 nM,0.000184 s⁻¹,,人源化二价多肽hbvCNb20-1 (VHH) EVQLVESGGGSVQAGGSLRLSCAASSGILEIFNAMSWFRQAPGKEREWVSAIMGSPYGSTEYYADSVKGRFTFSQDNAKNTVYLQMDSLRPEDTATYYCHSAGYDPRGDDYWGQGTLVTVSSGGGGSGGGGSGGGGSEVQLVESGGGSVQAGGSLRLSCAASSGILEIFNAMSWFRQAPGKEREWVSAIMGSPYGSTEYYADSVKGRFTFSQDNAKNTVYLQMDSLRPEDTATYYCHSAGYDPRGDDYWGQGTLVTVSS
,,0.0111 nM,纳米抗体CNb20-1 (VHH) VHH: QVQLQESGGGSVQAGGSLRLSCAASSGILEIFNAMAWFRQAPGKEREWVARIMGSPYGSTEYYADSVKGRFTFSQDNAKNTVYLQMDSLEPEDTATYYCHSAGYDPRGDDYWGQGTQVTVSS
,,0.0995 nM,"人源化纳米抗体hCNb20-1 (VHH, Humanised variant of CNb20-1, purified on Ni Sepharose) VHH: EVQLVESGGGSVQAGGSLRLSCAASSGILEIFNAMSWFRQAPGKEREWVSAIMGSPYGSTEYYADSVKGRFTFSQDNAKNTVYLQMDSLRPEDTATYYCHSAGYDPRGDDYWGQGTLVTVSS"
,,0.0423 nM,纳米抗体CNb20-2 (VHH) VHH: QVQLVESAGGLVQPGGSLRLSCAASGRFTGGSPMGWYRQAPGKRRELVADIMGRGGSNTYADSVKGRFTISRDNAKNTVYLQMNSLKPEDTAVYYCAEAERVSGLLLEVVAEPRGDDYWGQGTQVTVSS

# From patent CN112778416A (KANGYUAN MEDICAL TECH DALIAN CO LTD, dated 2021)
